Test [1] addresses BxpB (exosporium basal layer protein) (Bacillus anthracis).
For test [2] the target is unchanged. Nature of the test: LC-MS/MS and immunoblot analyses of BxpB-BclA and BxpB-(BclA NTD-eGFP) complexes.
Test [3] shares this target. Nature of the test: densitometry of anti-BxpB and anti-eGFP immunoblots.

The record followed here is patent US20140323691A1.

With “BclA (collagen-like glycoprotein of the Bacillus anthracis exosporium nap)”, the frequency of multiple attachments in test [1] was 57%. The same substance registered an NTDs attached to a single molecule of BxpB (per molecule of BxpB) in test [2] below 3.
Turning to “BclA NTD-enhanced green fluorescence protein (eGFP) fusion protein”, the frequency of multiple attachments in test [1] came out at 18%. Further, in test [3], the fusion proteins per molecule of BxpB (band 1) (per molecule of BxpB) is 1, the fusion proteins per molecule of BxpB (band 2) (per molecule of BxpB) came out at 2 and the fusion proteins per molecule of BxpB (band 3) (per molecule of BxpB) is 3.
